This data set is described as follows: soluble fraction after stress (log2 fold change); higher = more stays soluble; pooled small domains, quantitative proteomics. The following applies: stress: pH 4. In outline: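 Aggregation propensity here comes from the fold change in the soluble amount of each small protein domain after acid stress, measured in pooled custom libraries by high-throughput quantitative proteomics. The acid stress was pH 4. On the log2 scale, higher values mean more of the domain stayed soluble.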
“HMLEPGIAVLKTLMSQYRLGVADLPELGSKSNVSKLLNAVEGKKLTRQHIEALSKRFAVSPALF”: the “soluble fraction (log2)” value is 0.114.

As for “HMLEPGQKVKSVVVDISGDLIYIDLGGKTEGVVELKEFYDEAGEYHVKPGDEIEVFFVSVQNGLKRFTT”, the “soluble fraction (log2)” value is -0.403.

For the sequence “HMLEQISDPEVLSKLADEVLSQQEKMVMDYRKGKTAAFQGLMGQMMKKTKGKGNPAKIQEILAQKL”, the “soluble fraction (log2)” value is -0.192.

Turning to “HMLEQLTPRELKVLQALAQGRQNKEIAAQLVISERTVKFHVSAILSKLNVGNRTEAVTVAAQRGLISL”, the “soluble fraction (log2)” value was -0.729.

Consider “HMLEQSYYEKTDEIIELHGAKASSLIPVMQDVQAEYRYLPGELLSYIADKLGIPLAKAYSVATFYENFS”, for which the “soluble fraction (log2)” value was -0.951.

For “HMLERKFGTSLEIKSLSKFLIENNYKKNAKYLNKLIQVLGTRSENRIIKTFFKQFPEIENIFRNQL”, the “soluble fraction (log2)” value was -0.493.

As to “HMLETADDAKRFLGAIISEKKAENLLRVYPDIIERIVAGKPVDLSLVKGIKQKTFDKLRQKVISHYSMY”, the “soluble fraction (log2)” value is -0.0382.

With “HMLETHRRRQIILSLLRESGMLDVDEVAARLVVSPNTIRNDFNALAAEGLLRRIRGGATLAEP”, the “soluble fraction (log2)” value was -0.171.

Consider “HMLFKNASGTVVSRIQSQVDGQINIRTGSGNAPDYAFVAKPDGAVELYHNGTKQFETGSSGVLLP”, for which the “soluble fraction (log2)” value is -0.527.

“HMLFQQPATMIGKIGVAMSDLRPSGKIKIDDEWYDGQSEGDYILKGQEIIVVQVMNAYLIVRL”: the “soluble fraction (log2)” value was -0.44.

As for “HMLFRGNGFNTLYDKQLRITQQGEFKDGRLWDGKYYRYSKAGELVRIEIYEQGRYAGNGVITDEDKA”, the “soluble fraction (log2)” value is -0.0519.

For the sequence “HMLFSDSDLKSLLDKDISYVIEMYKAASKEQKRIISDMVAQKVMEKKYIDANILIQLGELTGINYMDL”, the “soluble fraction (log2)” value is -1.32.

As for “HMLFSEKLKQAMQDLHLNQIQVVGLTGKSKGSISQYISGKQVPSEATQRDIAISLGLEENYFSKK”, the “soluble fraction (log2)” value was 0.216.

With “HMLFYSDLVRLISFAEATLGKNEFETWYMSHHQGMKYTEIAIALGISVRTVEDRIARTKNHFRKI”, the “soluble fraction (log2)” value was -1.

For “HMLGAGFDSDLTARENIFLNGALLGHSRAVMRGYYDDIVNFAELHDFMDVPVKNFSSGMTSRLAFSIATIG”, the “soluble fraction (log2)” value came out at 0.183.

Take “HMLGARIAALRRQAGMNQGELAKKLGISPSTVGMYEQGRREPSAEMLVRLAEAFSVSTDFLLT”: the “soluble fraction (log2)” value is -0.0832.

As to “HMLGERIRRLRKEMGMSVTELARRVKTSPSYISEIEKGEKTPSLNLLVRIASELRTGIDYLTGL”, the “soluble fraction (log2)” value is -0.00698.

With “HMLGIGANVQKIAQERKISLKELSRRAGIPYTTIYNMVKRDSSRVSPENLQKLADALGVEIGKLYG”, the “soluble fraction (log2)” value was at least 0.43.

With “HMLGSQQAYTDALRLTGLPVDIEVIESDRLPFLIPMRYSLDQHLIEVNVRYPDTRAIRVQQMVEELFHA”, the “soluble fraction (log2)” value is -0.415.

Regarding “HMLGVKKFGGEAVIAGNIILRQRGTKWITGSNVGIGKDHTLFAKIEGYVVFERMRGRDGQQQISIYP”, the “soluble fraction (log2)” value is -0.192.

Consider “HMLGYQALASAFRSKVEAGIWPIGEAIPSEARLSKEYGVAVGTIRQAIAELAEEGILIKRHGKSTMVSSG”, for which the “soluble fraction (log2)” value was determined as 0.101.

“HMLHEFSGVVVSILADTGPSTLKQLHRSLISSDVKMDEKELMQILDEALSSGSVTSHRKGRYLYYSANK”: the “soluble fraction (log2)” value is -0.399.

On to “HMLHIKKGDTVIVNAGESKGQQGKVLEVLVGKERAIVEGVNMVSKHTKPNAKNPQGGIVKKEAPIHISNLQ”, for which the “soluble fraction (log2)” value came out at 0.0699.

As for “HMLHPLLWAVDEPTPVTVRTRPEYVPDVVRWLMQPESQREHDGVVDLRYTVTHRAAFRSRIYVLGTRVTIP”, the “soluble fraction (log2)” value came to 0.17.

Regarding “HMLIADADSLRKQIETVLANAPNEVAAYRGGKETLMGWFVGQIMRATGGKADPKLTREILAELLQ”, the “soluble fraction (log2)” value was -0.126.

For “HMLIADSDALRSQIESILNGNPNEVASFRAGKESLMGWFVGQVMRSTGGKADPKRTRELLQELLTK”, the “soluble fraction (log2)” value is -0.0841.

Turning to “HMLIDSEILKKTNKITIFLIYAFFSEYLINKEKKKILIGEYIKLSKDFLTIEEVKYFNHLLDDISK”, the “soluble fraction (log2)” value was -0.304.

Take “HMLIDSNNYFFYKVKPKEGFYSLQKKLGVNRSEIEKHNPSLINEVLKEGMILKIPKYLLNFDLN”: the “soluble fraction (log2)” value is -0.214.

Consider “HMLILTWNYPYEYPMMMRSFLQEIGISRTFLAHIKSNGELLINGRHEIVLKTLQPGDVLTMVIPPSG”, for which the “soluble fraction (log2)” value was -0.78.

Consider “HMLINLGPRIRKERRSKGISQSDFSKNLGISASYLNLLENGRRTLTVPLLIKIGNELNLSLKDL”, for which the “soluble fraction (log2)” value worked out at 0.113.

Regarding “HMLISAESVKRRLEMIRHLILLGDYEDVTAQVIKLNPAANEYKLTPIIEELNGGKYQEALEKINSYLSKF”, the “soluble fraction (log2)” value was -0.127.

Regarding “HMLISKNLLGFTIKNTSGVTFGTLKDIMWLPSNDVYVIDNNGKEYLIPVISEIVKSINYDKGSITIFP”, the “soluble fraction (log2)” value was -0.398.

For “HMLKASEVLPYVFTDKFFIDDLNLKQDQILGFLEYIDSKLPSQKLLQVSQQFQLIDFLINESKNYKNQ”, the “soluble fraction (log2)” value was -0.252.

Consider “HMLKDININVTGLDQISNAKLINNLNLLKMNNLFFLDEKKIKKILNSNNLIEKFFIFKKYPSTLDIKVYKT”, for which the “soluble fraction (log2)” value was found to be 0.22.

As to “HMLKHNLLSELSRIEGVGAVKRKALMDKFGTVENIKRASEEELSEVAGIGPTLARTIKEQMNKDE”, the “soluble fraction (log2)” value is -0.2.

“HMLKKRKPMSGVGVIVKGMLTGTVTGTDGSYALKARPNDELSFSFLGYKTQEVFVGSKSTIDITLVDEA”: the “soluble fraction (log2)” value was -0.0294.

With “HMLKLEEIQPNATVRGILPDALITVVNVKWFGSEALELTYKDTSGRVANQLLFRDDQPRLEIVE”, the “soluble fraction (log2)” value is -1.12.

In the case of “HMLKLEPYTINEINSLQELYDLGNVRALETLISIYKDKNQVYDTRFYVLDILSKYDNPLIQEALEESITN”, the “soluble fraction (log2)” value was -1.89.

On to “HMLKLPVEYLNLKYQLMHATSLDKPNNLMKLDEKLGKIIDVYYDDLPVDEQRVVDILQSKLYSY”, for which the “soluble fraction (log2)” value is -1.72.

For “HMLKLYILTDGKNYVMDDPIHPGRVMYSTSPVNAKKFTFKQARALLNNKSKKLSWIRSFNMVDDSSGEKI”, the “soluble fraction (log2)” value is 0.417.

As to “HMLKREDEVIVVAGKDKGKRGTITQLVGDDRVIVAGVNMVKRHTKPNPNLGQPGGIVEREASLHISNV”, the “soluble fraction (log2)” value was -0.162.

Consider “HMLKVHPRDQEENRLLLLKGERLYEESTGDTRVMIDMWLRKFEEALNSRSRENIEDARRELKEQLAELDN”, for which the “soluble fraction (log2)” value is -0.312.

“HMLLAPLRLGAAPDIKAQAPLATILARHNGEMEAKDLWQRFGGEIDAFYLQLKTEVAHGWIVEPEPA”: the “soluble fraction (log2)” value was 0.0787.

Regarding “HMLLELINLQVKILENEELKIIGKVIDLENEKNNLLVIELLKDQKKVLVPFVKEIVPLIDIKNNFIMINPP”, the “soluble fraction (log2)” value is -0.703.

On to “HMLLFNVADIVKRAKRVLNFKTDAELAAYLGVSRPTLSNWIARNGIDFPLLLEKLKEIDYNWLLVGKGKPE”, for which the “soluble fraction (log2)” value was -0.114.

As for “HMLLGPDALTNRELDVLALLERRLSNKEIGALLYISPRTVKRHTINIYQKLHVNNRRAAVAQAKALGLMPD”, the “soluble fraction (log2)” value was -0.489.

Consider “HMLLKIRPDLDGNEIMKLLNIAAGPNVGKAYEHLLELRLEHGPLGKERAEQELMNWWSARSQ”, for which the “soluble fraction (log2)” value is -0.371.

For the sequence “HMLLNSLIDTLAAEKATVVPGTEVFKLYDTYGFPWELTEEIASERGFTIDHEGFEAAMKEQRERAREARV”, the “soluble fraction (log2)” value was 0.0336.

In the case of “HMLLNTSQLKELYNRYDKKNSSLISIPFSAISDEPLKFYKWYAALFQIELNVKAFADVDSKQIIIYKGTK”, the “soluble fraction (log2)” value was -0.175.

“HMLLRSEDAIELGKSQLEDALAPYKIETLDTGTVQQLLDSLKLNSLESLYQEIGLGNRMSTIIAHRLLGE”: the “soluble fraction (log2)” value was -0.88.

In the case of “HMLLSFYGTYGNVKLTGKELEDLQKEFPFDYQARIDRLSAYMESSGRKYHSHFATIRSWAQDDAKKN”, the “soluble fraction (log2)” value was 0.173.

As to “HMLLSYDIAEYIEKYIHEHGLQPGDRLPTERELAAQLDITRVSVRQGYKRLLDQGVIRSENGYYVNPPR”, the “soluble fraction (log2)” value came to 0.0914.

Take “HMLLTDGLERRIDGDKNLHIRISLPMLVKGQIKLAKSGNNESTVKGIFKIESYPGSHPRDVVTEIIEG”: the “soluble fraction (log2)” value was -0.0816.

In the case of “HMLLTHPKRVFTYELIMELVWNEDYTFYSKKAVSNHMSNLRKKLKVTPDALDYIKNIVGVGYKFEA”, the “soluble fraction (log2)” value was -0.0812.

Turning to “HMLMKKTITHEIELLEFLKQIFPQSSTNKLRKMLSNGRIKINSEIVHKAKYKLQENDTFELLDNPT”, the “soluble fraction (log2)” value is -0.0208.

Turning to “HMLNEIMDTINKYISDKRNNKVAQNILSAALDELNSQIRVGLKDLNPHSIEEFKENVINSPYIEFEQG”, the “soluble fraction (log2)” value is -0.126.

“HMLNEWIDYIDEHIKEELTAKNLATVFGYSERHFRNVFQIYYDIKLNDYIRRRKLYFAAQELKKG”: the “soluble fraction (log2)” value was -1.76.

With “HMLNMSVYDKQLLRAVENNPFISQRELARELHWNVDRVKYYMKKWKDKGGLRHVGSSHKGYWEVLVRIEEK”, the “soluble fraction (log2)” value is -0.0578.

Consider “HMLNNVDIHKLSEDLLLYKIKIDIKLKNIEDAISTIDYFSNKFPNSDLMPYVIYEKKLIDNI”, for which the “soluble fraction (log2)” value is -0.741.

“HMLNPLLLPFVEAEDFQVKLEILAAMEGKVGEEDLDILYEALDLPKMTGNIEEQIHSIKQYIEMRK”: the “soluble fraction (log2)” value was -1.39.

For the sequence “HMLNPVEKLLLLSQLYIGRLKGSFVVKEKHHKSTILGEVRELSPEEITLKTDEGYRLIRVDDILTIQL”, the “soluble fraction (log2)” value is -0.704.

As for “HMLNSLDATQRLKLNKDGVVVFNFGKYVDQSVIDIFKKEKGYYNWMMSKDFSQQVKNIITKIYQEEIIG”, the “soluble fraction (log2)” value was -0.0228.

In the case of “HMLNTLGADIRALRKARGLTLAELAQTLGRSVGWLSQVERDMSEPGINDLRDLARALDVSISSLFG”, the “soluble fraction (log2)” value was -0.366.

In the case of “HMLNWINSDVLERFNSLTKEKQKAIVADTETRLNGLSQARFKVAKSSSNERLIAEFAIEINEAIMRAAAL”, the “soluble fraction (log2)” value is -0.894.

Regarding “HMLPADETEARVLNVLGSEPLHVDEIRNQADLPIEKISATLAMMELKGMVRQVGGMNYVAMR”, the “soluble fraction (log2)” value was -0.892.

As for “HMLPANGEAIYHYLASGAIKGVGPVTAQRIVDKFGEDTFDVLENNPLWLAEIKGITRKTAENIGAAFAAQF”, the “soluble fraction (log2)” value was -0.263.

On to “HMLPDAESFSYEVPYTKGDGGTYNYEGKIKAQNADAARDEIIRQAQVYFQMNPQFTPDYPSTTITSLD”, for which the “soluble fraction (log2)” value is 0.0666.

With “HMLPDDDMLLNILTKLLIDKQFVINSHEIFDFIIKRANRSYEEMFILVNKLDQLSLEKKRQLTIPLIKEI”, the “soluble fraction (log2)” value was -1.22.

On to “HMLPDLQESIDELLNIVDQRLNTSFEELVSGVNTTEKAIAFFLALLETIKWGFIKAEQTNNENKINIEKNY”, for which the “soluble fraction (log2)” value is -1.4.

Values taken from the domain aggregation screens of Martell et al. (2025).
